Experiment in all cases: ELISA; called peptide array: biotinylated peptides immobilised on streptavidin-coated 96-well plates; 1 μM His6-mATG8 in PBS, 0.1% Tween-20, 1% BSA, 1 h, 8°C; anti-His-HRP, TMB, absorbance at 450 nm
Common to all, as to details: both partners purified
In general terms: An ELISA detects its analyte on a solid surface through an enzyme-linked reagent.

The target of test [1] is T1, 6xHis‐tagged GABARAP (human, UniProt O95166 1-117).
T1 construct: GABARAP, human; also called His6‐GABARAP; source: E. coli, isolated
T1 sequence (O95166 whole entry): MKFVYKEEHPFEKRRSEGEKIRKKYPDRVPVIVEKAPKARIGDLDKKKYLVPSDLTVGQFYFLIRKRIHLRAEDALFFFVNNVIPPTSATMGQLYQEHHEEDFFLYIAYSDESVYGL

In test [2] the target is T2, 6xHis‐tagged GABARAP‐L1 (human, UniProt Q9H0R8 1-117).
T2 construct: GABARAP-L1, human; also called His6‐GABARAP‐L1; source: E. coli, isolated
T2 sequence (Q9H0R8 whole entry, looked up): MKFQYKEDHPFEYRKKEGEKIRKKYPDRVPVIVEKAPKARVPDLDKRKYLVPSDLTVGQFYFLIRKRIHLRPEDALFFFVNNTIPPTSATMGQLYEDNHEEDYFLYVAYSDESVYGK

Test [3] deals with T3, 6xHis‐tagged GABARAP‐L2 (human, UniProt P60520 1-117).
T3 construct: GABARAP-L2/GATE-16, human; also called His6‐GABARAP‐L2; GATE‐16; source: E. coli, isolated
T3 sequence (P60520 whole entry): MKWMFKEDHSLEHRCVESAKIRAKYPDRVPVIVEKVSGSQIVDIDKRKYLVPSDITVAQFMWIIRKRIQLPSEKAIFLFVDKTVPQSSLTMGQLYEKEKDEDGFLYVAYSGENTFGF

For test [4], the target named is 6xHis‐tagged LC3B (human, UniProt Q9GZQ8 1-120).
The target in test [5] is T4, 6xHis‐tagged LC3C (human, UniProt Q9BXW4 1-126).
T4 construct: LC3C, human; also called His6‐LC3C; source: E. coli, isolated
T4 sequence (Q9BXW4 1-126): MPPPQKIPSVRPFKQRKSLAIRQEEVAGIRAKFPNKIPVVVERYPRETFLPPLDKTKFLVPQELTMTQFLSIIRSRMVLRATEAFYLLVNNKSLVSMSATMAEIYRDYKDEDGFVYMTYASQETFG

Test [6] addresses T5, 6xHis‐tagged LC3A (human, UniProt Q9H492 1-121).
T5 construct: LC3A (MAP1LC3A), human; also called His6‐LC3A; MAP1LC3A; source: E. coli, isolated

Ends that are not written are not given here.

B1: ULK2 LIR peptide (350–358), biotinylated (peptide)
peptide: TDDFVLVPH
modifications: also: biotinylated
notes: ULK2 LIR; source: bought: JPT (biotinylated peptide)
Take B1: in test [1], the binding result is given as “binds”.

B2: PLEKHM1‐LIR N637R peptide (biotinylated 9-mer) (peptide, UniProt Q9Y4G2 632-640, looked up)
peptide: EDEWVRVQY
modifications: also: biotinylated
notes: PLEKHM1 LIR; source: bought: JPT (biotinylated peptide)
As to B2, the binding result in test [2], in test [3] and in test [1] was “binds” in each case.

B3: TECPR2 LIR peptide (1403–1411), biotinylated (peptide)
peptide: DLEDEWEVI
modifications: also: biotinylated
notes: TECPR2 LIR; source: bought: JPT (biotinylated peptide)
With B3, the binding result in test [4] and in test [1] was “binds” throughout.

B4: FUNDC1 LIR peptide (printed positions 152–160), biotinylated (peptide)
peptide: DDSYEVLDL
modifications: also: biotinylated
notes: FUNDC1 LIR; source: bought: JPT (biotinylated peptide)
As to B4, the binding result in test [4] is “binds”.

B5: MAP15K LIR peptide (337–345), biotinylated (peptide)
peptide: SRVYQMILE
modifications: also: biotinylated
notes: printed as MAP15K; source: bought: JPT (biotinylated peptide)
As for B5, the binding result in test [4] and in test [1] was “binds” in each case.

B6: FAM134B LIR peptide (452–460), biotinylated (peptide)
peptide: GDDFELLDQ
modifications: also: biotinylated
notes: FAM134B LIR; source: bought: JPT (biotinylated peptide)
In the case of B6, the binding result in test [4] and in test [1] was “binds” each time.

B7: TP53INP1 LIR peptide (28–36), biotinylated (peptide)
peptide: DDEWILVDF
modifications: also: biotinylated
notes: TP53INP1 LIR; source: bought: JPT (biotinylated peptide)
With B7, the binding result in test [4] and in test [1] was “binds” each time.

B8: ATG4B LIR peptide (4–12), biotinylated (peptide)
peptide: TLTYDTLRF
modifications: also: biotinylated
notes: ATG4B LIR; source: bought: JPT (biotinylated peptide)
As for B8, the binding result in test [4] and in test [1] was “binds” each time.

B9: PLEKHM1‐LIR V638A peptide (biotinylated 9-mer) (peptide, UniProt Q9Y4G2 632-640, looked up)
peptide: EDEWVNAQY
modifications: also: biotinylated
notes: as for B2
For B9, the binding result in test [3] and in test [1] was “binds” in each case.

B10: TBC1D5 (LIR2) peptide (785–793), biotinylated (peptide)
peptide: DSGFTIVSP
modifications: also: biotinylated
notes: TBC1D5 LIR2; source: bought: JPT (biotinylated peptide)
As for B10, the binding result in test [4] and in test [1] was “binds” each time.

B11: STBD1 LIR peptide (200–208), biotinylated (peptide)
peptide: HEEWEMVPR
modifications: also: biotinylated
notes: STBD1 LIR; source: bought: JPT (biotinylated peptide)
For the molecule B11, in test [1], the binding result is given as “binds”.

B12: PLEKHM1‐LIR WT peptide (EDEWVNVQY), biotinylated (peptide)
peptide: EDEWVNVQY
modifications: also: biotinylated
notes: PLEKHM1 LIR; also called PLEKHM1 LIR 632–640; source: bought: JPT (biotinylated peptide)
Regarding B12, the binding result in test [5], in test [6], in test [2], in test [4], in test [3] and in test [1] was “binds” throughout.

B13: TBC1D5 (LIR1) peptide (55–63), biotinylated (peptide)
peptide: RKEWEELFV
modifications: also: biotinylated
notes: TBC1D5 LIR1; source: bought: JPT (biotinylated peptide)
As to B13, in test [1], the binding result is reported as “binds”.

B14: KTBD6 LIR peptide (665–673), biotinylated (peptide)
peptide: DDFWVRVAP
modifications: also: biotinylated
notes: KBTBD6 in the text; also called KBTBD6; KBTDB6; source: bought: JPT (biotinylated peptide)
For the molecule B14, the binding result in test [1] is “binds”.

B15: PLEKHM1‐LIR N637P peptide (biotinylated 9-mer) (peptide, UniProt Q9Y4G2 632-640, looked up)
peptide: EDEWVPVQY
modifications: also: biotinylated
notes: as for B2
With B15, the binding result in test [2], in test [3] and in test [1] was “binds” in each case.

B16: ATG13 LIR peptide (441–449), biotinylated (peptide)
peptide: HDDFVMIDF
modifications: also: biotinylated
notes: ATG13 LIR; source: bought: JPT (biotinylated peptide)
With B16, the binding result in test [1] is “binds”.

B17: NIX/BNIPL3 LIR peptide (33–41), biotinylated (peptide)
peptide: NSSWVELPM
modifications: also: biotinylated
notes: NIX LIR; also called Nix/BNIP3L; source: bought: JPT (biotinylated peptide)
For the molecule B17, the binding result in test [4] and in test [1] was “binds” each time.

B18: ULK1 LIR peptide (354–362), biotinylated (peptide)
peptide: TDDFVMVPA
modifications: also: biotinylated
notes: ULK1 LIR; source: bought: JPT (biotinylated peptide)
B18: in test [1], the binding result is given as “binds”.

B19: PLEKHM1‐LIR V636A peptide (biotinylated 9-mer) (peptide, UniProt Q9Y4G2 632-640, looked up)
peptide: EDEWANVQY
modifications: also: biotinylated
notes: as for B2
Regarding B19, the binding result in test [3] and in test [1] was “binds” each time.

B20: OPTN LIR peptide (175–183), biotinylated (peptide)
peptide: EDSFVEIRM
modifications: also: biotinylated
notes: OPTN LIR; source: bought: JPT (biotinylated peptide)
Take B20: the binding result in test [1] is listed as “binds”.

B21: TBC1D25 LIR peptide (133–141), biotinylated (peptide)
peptide: LEDWDIISP
modifications: also: biotinylated
notes: TBC1D25 LIR; source: bought: JPT (biotinylated peptide)
For the molecule B21, the binding result in test [4] and in test [1] was “binds” in each case.

B22: Clathrin HC1 LIR peptide (511–519), biotinylated (peptide)
peptide: TPDWIFLLR
modifications: also: biotinylated
notes: Clathrin HC1 LIR; source: bought: JPT (biotinylated peptide)
Consider B22, for which the binding result in test [1] is given as “binds”.

B23: PLEKHM1‐LIR N637A peptide (biotinylated 9-mer) (peptide, UniProt Q9Y4G2 632-640, looked up)
peptide: EDEWVAVQY
modifications: also: biotinylated
notes: as for B2
In the case of B23, the binding result in test [2], in test [3] and in test [1] was “binds” throughout.

B24: TP53INP2/DOR LIR peptide (32–40), biotinylated (peptide)
peptide: VDGWLIIDL
modifications: also: biotinylated
notes: TP53INP2/DOR LIR; source: bought: JPT (biotinylated peptide)
Regarding B24, the binding result in test [4] and in test [1] was “binds” throughout.

B25: Tax1BP1 LIR peptide (137–145), biotinylated (peptide)
peptide: NSDMLVVTT
modifications: also: biotinylated
notes: Tax1BP1 LIR; source: bought: JPT (biotinylated peptide)
For the molecule B25, the binding result in test [4] and in test [1] was “binds” each time.

B26: β‐Catenin LIR peptide (501–509), biotinylated (peptide)
peptide: PSHWPLIKA
modifications: also: biotinylated
notes: β-Catenin LIR; source: bought: JPT (biotinylated peptide)
Take B26: the binding result in test [4] and in test [1] was “binds” in each case.

B27: NDP52 LIR peptide (130–138), biotinylated (peptide)
peptide: EEDILVVTT
modifications: also: biotinylated
notes: NDP52 LIR; source: bought: JPT (biotinylated peptide)
On to B27, for which the binding result in test [4] and in test [1] was “binds” each time.

B28: FIP200 LIR peptide (699–707), biotinylated (peptide)
peptide: TFDFETIPH
modifications: also: biotinylated
notes: FIP200 LIR; source: bought: JPT (biotinylated peptide)
On to B28, for which the binding result in test [4] and in test [1] was “binds” throughout.

B29: JMY LIR peptide (10–18), biotinylated (peptide)
peptide: ESDWVAVRP
modifications: also: biotinylated
notes: JMY LIR; source: bought: JPT (biotinylated peptide)
For the molecule B29, in test [1], the binding result is “binds”.

B30: NBR1 LIR peptide (729–737), biotinylated (peptide)
peptide: SEDYIIILP
modifications: also: biotinylated
notes: NBR1 LIR; source: bought: JPT (biotinylated peptide)
For B30, the binding result in test [1] is recorded as “binds”.

B31: FYCO1 LIR peptide (1277–1285), biotinylated (peptide)
peptide: DAVFDIITD
modifications: also: biotinylated
notes: FYCO1 LIR; source: bought: JPT (biotinylated peptide)
Turning to B31, the binding result in test [4] and in test [1] was “binds” throughout.

B32: c‐CBL LIR peptide (799–807), biotinylated (peptide)
peptide: SFGWLSLDG
modifications: also: biotinylated
notes: c-CBL LIR; source: bought: JPT (biotinylated peptide)
For the molecule B32, the binding result in test [4] and in test [1] was “binds” each time.

B33: PLEKHM1‐LIR N637G peptide (biotinylated 9-mer) (peptide, UniProt Q9Y4G2 632-640, looked up)
peptide: EDEWVGVQY
modifications: also: biotinylated
notes: as for B2
With B33, the binding result in test [2], in test [3] and in test [1] was “binds” each time.

B34: PLEKHM1‐LIR N637K peptide (biotinylated 9-mer) (peptide, UniProt Q9Y4G2 632-640, looked up)
peptide: EDEWVKVQY
modifications: also: biotinylated
notes: as for B2
With B34, the binding result in test [2], in test [3] and in test [1] was “binds” each time.

B35: DVL2 LIR peptide (441–449), biotinylated (peptide)
peptide: DRMWLKITI
modifications: also: biotinylated
notes: DVL2 LIR; source: bought: JPT (biotinylated peptide)
Regarding B35, the binding result in test [4] and in test [1] was “binds” in each case.

B36: Calreticulin LIR peptide (197–205), biotinylated (peptide)
peptide: EDDWDFLPP
modifications: also: biotinylated
notes: Calreticulin LIR; source: bought: JPT (biotinylated peptide)
Turning to B36, the binding result in test [4] and in test [1] was “binds” in each case.

B37: PLEKHM1‐LIR V636C peptide (biotinylated 9-mer) (peptide, UniProt Q9Y4G2 632-640, looked up)
peptide: EDEWCNVQY
modifications: also: biotinylated
notes: as for B2
On to B37, for which the binding result in test [5], in test [6], in test [2], in test [4], in test [3] and in test [1] was “binds” in each case.

These data come from PMC5538626 (EMBO Reports, 2017).
